Earlier results as cited in PMC5964610.

Target: FER (Arabidopsis thaliana) (UniProt Q9SCZ4)
UniProt Q9SCZ4, sequence (Q9SCZ4 28-447): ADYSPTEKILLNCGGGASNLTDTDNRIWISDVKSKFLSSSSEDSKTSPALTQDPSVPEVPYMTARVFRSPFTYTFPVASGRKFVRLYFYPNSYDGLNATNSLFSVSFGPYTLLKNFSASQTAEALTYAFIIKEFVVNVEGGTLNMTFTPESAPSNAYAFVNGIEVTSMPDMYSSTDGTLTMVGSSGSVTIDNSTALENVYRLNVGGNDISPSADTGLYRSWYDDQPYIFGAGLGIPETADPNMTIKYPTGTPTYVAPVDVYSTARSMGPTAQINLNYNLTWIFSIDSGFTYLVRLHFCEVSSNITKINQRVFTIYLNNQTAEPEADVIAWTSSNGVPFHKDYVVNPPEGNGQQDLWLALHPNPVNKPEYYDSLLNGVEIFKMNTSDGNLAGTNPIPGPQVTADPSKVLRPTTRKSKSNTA

RALF23 (from UniProt Q9LUS7)
Kd: 310 nM
